{
  "source": "ChEMBL document CHEMBL1132216",
  "about": "“Studies on the monoamine oxidase-B-catalyzed biotransformation of 4-azaaryl-1-methyl-1,2,3,6-tetrahydropyridine derivatives” (J Med Chem, 1999)",
  "proteins": {"B1": {"name": "Amine oxidase [flavin-containing] B (Bos taurus) (protein)", "chain": "MSSKCDVVVVGGGISGMAAAKLLHDSGLNVIVLEARDRVGGRTYTLRNQKVKYVDLGGSYVGPTQNHILRLSKELGLETYKVNEVERLIHHTKGKSYPFRGSFPSVWNPITYLDHNNLWRTMDDMGREIPSDAPWKAPLAEQWDLMTMKELLDKICWTESSKQLAILFVNLCVTAEIHEVSALWFLWYVKQCGGTTRIFSTSNGGQERKFVGGSGQVSERIMDLLGDRVKLERPVIHIDQTGENVLVETLNHELYEAKYVISAVPPVLGMKIHFNPPLPMMRNQLITRVPLGSVIKSIVYYKEPFWRNMDYCGSMIIEGEEAPVAYALDDTKPDGSYPAIIGFILAHKARKLARLTKEERLKKLCDLYAKVLGSQEALHPVHYEEKNWCEEQYSGGCYTSYFPPGIMTQYGRVLRQPVGRIYFAGTETATHWSGYMEGAVEAGERAAREILHAMGKIPEDEIWLPEPESVDVPAKPITTTFLQRHLPSVPGLLKLIGLTTIFSATALGFLAHKRGLLVRI"}},
  "assay_in_all_cases": "not read",
  "key": {"[1]": {"substrate": "CN1CC=C(c2cccn2C)CC1", "description": "(§1) Km against bovine liver Monoamine oxidase B"}, "[2]": {"substrate": "CN1CC=C(n2nnc3ccccc32)CC1", "description": "as §1"}, "[3]": {"substrate": "CN1CC=C(c2ccc[nH]2)CC1", "description": "as §1"}, "[4]": {"substrate": "CN1CC=C(n2ncc3ccccc32)CC1", "description": "as §1"}, "[5]": {"substrate": "CN1CC=C(c2ccncc2)CC1", "description": "as §1"}, "[6]": {"substrate": "CN1CC=C(n2cnc3ccccc32)CC1", "description": "as §1"}, "[7]": {"substrate": "CN1CC=C(n2ccc3ccccc32)CC1", "description": "as §1"}, "[8]": {"substrate": "CN1CC=C(n2cccc2)CC1", "description": "as §1"}},
  "data": [
    {"protein": "B1", "values": [
      {"measurement": "Km", "setting": "[1]", "value": 200, "unit": "µM"},
      {"measurement": "kcat", "setting": "[1]", "value": 6, "unit": "s⁻¹"},
      {"measurement": "Km", "setting": "[2]", "value": 80, "unit": "µM"},
      {"measurement": "kcat", "setting": "[2]", "value": 0.9, "unit": "s⁻¹"},
      {"measurement": "Km", "setting": "[3]", "value": 1800, "unit": "µM"},
      {"measurement": "kcat", "setting": "[3]", "value": 1.42, "unit": "s⁻¹"},
      {"measurement": "Km", "setting": "[4]", "value": 100, "unit": "µM"},
      {"measurement": "kcat", "setting": "[4]", "value": 2, "unit": "s⁻¹"},
      {"measurement": "Km", "setting": "[5]", "value": 2400, "unit": "µM"},
      {"measurement": "kcat", "setting": "[5]", "value": 0.233, "unit": "s⁻¹"},
      {"measurement": "Km", "setting": "[6]", "value": 900, "unit": "µM"},
      {"measurement": "kcat", "setting": "[6]", "value": 3.33, "unit": "s⁻¹"},
      {"measurement": "Km", "setting": "[7]", "value": 110, "unit": "µM"},
      {"measurement": "kcat", "setting": "[7]", "value": 6.9, "unit": "s⁻¹"},
      {"measurement": "Km", "setting": "[8]", "value": 650, "unit": "µM"},
      {"measurement": "kcat", "setting": "[8]", "value": 4.47, "unit": "s⁻¹"}
    ]}
  ]
}
